# Assay results published in patent US5935811.
# Target: T1, NRSF/REST (lambda-HZ4 partial) (Homo sapiens) (UniProt Q13127)
# T1 sequence: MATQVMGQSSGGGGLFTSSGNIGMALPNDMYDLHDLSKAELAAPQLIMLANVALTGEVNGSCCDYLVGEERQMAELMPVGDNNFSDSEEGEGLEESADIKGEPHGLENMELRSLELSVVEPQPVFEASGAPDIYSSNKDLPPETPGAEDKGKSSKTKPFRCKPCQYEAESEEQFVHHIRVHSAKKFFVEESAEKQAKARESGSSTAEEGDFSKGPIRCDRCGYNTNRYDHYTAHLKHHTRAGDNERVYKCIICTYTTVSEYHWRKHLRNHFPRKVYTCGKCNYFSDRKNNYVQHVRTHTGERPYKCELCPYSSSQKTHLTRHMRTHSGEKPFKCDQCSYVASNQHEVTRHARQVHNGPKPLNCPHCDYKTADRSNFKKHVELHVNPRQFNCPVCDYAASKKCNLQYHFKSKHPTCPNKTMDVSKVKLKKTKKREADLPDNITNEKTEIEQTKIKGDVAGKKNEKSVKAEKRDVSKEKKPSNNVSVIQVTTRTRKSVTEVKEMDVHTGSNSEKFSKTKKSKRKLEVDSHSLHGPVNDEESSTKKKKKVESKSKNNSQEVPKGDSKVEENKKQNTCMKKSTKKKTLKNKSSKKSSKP
# Assay: cell_activity
# Settings: pCAT3 reporter, maximum pCMV-HZ4, PC12 cells
substance,measurement,value
pCAT3 SCG10 proximal promoter without NRSE,activity (fold repression),1.5
